# Test results published in paper PMC3046150.
# How the values were obtained:
# [1] = biological target: human TrkA on BALB/C 3T3-hTrkA cells (human) (UniProt P04629)
# [2] = biological target: p75 neurotrophin receptor (p75NTR), endogenous on rat cells (rat (endogenous in rat oligodendrocyte progenitor cells)) (UniProt P07174)
# Chain of UniProt P07174 (P07174 30-425): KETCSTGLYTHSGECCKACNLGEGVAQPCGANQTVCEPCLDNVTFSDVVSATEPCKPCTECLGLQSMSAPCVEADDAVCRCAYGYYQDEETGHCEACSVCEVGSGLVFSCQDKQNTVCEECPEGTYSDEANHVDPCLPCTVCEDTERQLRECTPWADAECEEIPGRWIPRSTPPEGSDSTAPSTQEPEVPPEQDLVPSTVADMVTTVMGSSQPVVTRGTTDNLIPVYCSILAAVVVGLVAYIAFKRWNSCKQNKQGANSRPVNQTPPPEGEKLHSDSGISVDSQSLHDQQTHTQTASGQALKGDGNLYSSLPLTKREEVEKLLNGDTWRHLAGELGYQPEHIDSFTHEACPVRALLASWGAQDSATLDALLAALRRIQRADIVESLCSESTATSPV
# Chain of UniProt P04629 (P04629 33-796): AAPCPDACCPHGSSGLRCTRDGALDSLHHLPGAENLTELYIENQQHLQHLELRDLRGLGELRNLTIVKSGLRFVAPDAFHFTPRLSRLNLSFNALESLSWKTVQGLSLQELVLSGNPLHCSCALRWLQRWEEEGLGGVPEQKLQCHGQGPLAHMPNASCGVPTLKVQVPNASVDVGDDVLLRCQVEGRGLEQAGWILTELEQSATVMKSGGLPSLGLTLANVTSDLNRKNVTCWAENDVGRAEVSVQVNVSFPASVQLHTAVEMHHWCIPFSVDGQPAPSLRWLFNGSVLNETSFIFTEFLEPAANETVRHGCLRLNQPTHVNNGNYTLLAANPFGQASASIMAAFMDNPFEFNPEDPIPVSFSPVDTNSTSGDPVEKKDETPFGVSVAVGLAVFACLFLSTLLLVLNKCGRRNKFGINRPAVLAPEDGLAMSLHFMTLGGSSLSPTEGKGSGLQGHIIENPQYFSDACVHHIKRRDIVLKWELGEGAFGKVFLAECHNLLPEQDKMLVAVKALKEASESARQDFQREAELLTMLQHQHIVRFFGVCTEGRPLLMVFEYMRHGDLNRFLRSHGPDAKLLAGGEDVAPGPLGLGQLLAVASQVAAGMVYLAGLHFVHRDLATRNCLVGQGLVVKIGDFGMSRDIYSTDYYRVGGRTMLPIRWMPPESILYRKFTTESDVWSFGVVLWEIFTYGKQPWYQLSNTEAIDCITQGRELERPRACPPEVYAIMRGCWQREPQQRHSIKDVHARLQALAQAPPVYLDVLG
Substance,"phosphorylation of TrkA residue Tyr490 in BALB/C 3T3-hTrkA cells, 100 ng/ml, Western blot with site-specific anti-phosphoTrkA antibody (% reduction against hNGF) [1]","phosphorylation of c-jun at Ser63 in hippocampal cells (p75NTR dependent activation of the jnk kinase), 100 ng/ml (% reduction against hNGF) [2]"
"hNGFR100E, mature human NGF with the substitution R100E (from UniProt P01138 122-241) (ligand)",70,30
"hNGFR100W, mature human NGF with the HSAN V substitution R100W (from UniProt P01138 122-241) (ligand)",70,
